In patent US20200283521A1 (GRANULAR THERAPEUTICS, published 2020):

Key:
hDR6-Fc = biological target: T1, hDR6-Fc (human, UniProt O75509); assay: direct ELISA on coated protein, IgG1
T1 construct: Fc fusion; member of the panel m9
T1 sequence (looked up): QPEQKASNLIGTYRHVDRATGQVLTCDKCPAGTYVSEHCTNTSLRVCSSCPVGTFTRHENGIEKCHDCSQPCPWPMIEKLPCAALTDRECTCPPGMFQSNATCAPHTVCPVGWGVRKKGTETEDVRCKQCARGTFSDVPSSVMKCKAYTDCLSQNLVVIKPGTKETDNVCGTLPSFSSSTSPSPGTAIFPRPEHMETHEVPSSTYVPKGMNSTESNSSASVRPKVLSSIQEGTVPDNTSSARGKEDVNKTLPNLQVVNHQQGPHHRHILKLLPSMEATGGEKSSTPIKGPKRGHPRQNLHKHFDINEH

PSAPL1 = biological target: T2, PSAPL1 (human, UniProt Q6NUJ1); assay: cell array, transfected fixed HEK293 cells
T2 construct: expressed in transfected HEK293 cells
T2 sequence (looked up): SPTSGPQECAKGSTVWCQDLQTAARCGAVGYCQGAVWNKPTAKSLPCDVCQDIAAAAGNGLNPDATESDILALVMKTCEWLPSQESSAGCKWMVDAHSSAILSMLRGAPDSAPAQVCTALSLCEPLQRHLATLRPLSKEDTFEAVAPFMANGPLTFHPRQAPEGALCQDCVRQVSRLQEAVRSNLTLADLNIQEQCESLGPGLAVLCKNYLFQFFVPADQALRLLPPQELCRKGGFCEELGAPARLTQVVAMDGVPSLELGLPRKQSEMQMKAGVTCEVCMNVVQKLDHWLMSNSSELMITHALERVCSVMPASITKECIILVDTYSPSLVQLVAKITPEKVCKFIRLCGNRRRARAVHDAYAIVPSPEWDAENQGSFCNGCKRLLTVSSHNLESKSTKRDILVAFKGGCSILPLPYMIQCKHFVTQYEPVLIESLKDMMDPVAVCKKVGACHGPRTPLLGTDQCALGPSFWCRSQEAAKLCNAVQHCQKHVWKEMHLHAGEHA
Protocol: (§1) Transfection of all plasmids was confirmed by screening for the co-encoded marker ZS green (FIG. 13A).
(§2) Primary hits (duplicate spots) were identified by analysing fluorescence (AF647 and ZsGreenl) on ImageQuant. Vectors encoding all hits were sequenced to confirm their correct identities. […] Slides were analysed as above.

OSM = biological target: T3, OSM (human, UniProt P13725); assay: cell array, transfected fixed HEK293 cells
T3 construct: expressed in transfected HEK293 cells
T3 sequence (looked up): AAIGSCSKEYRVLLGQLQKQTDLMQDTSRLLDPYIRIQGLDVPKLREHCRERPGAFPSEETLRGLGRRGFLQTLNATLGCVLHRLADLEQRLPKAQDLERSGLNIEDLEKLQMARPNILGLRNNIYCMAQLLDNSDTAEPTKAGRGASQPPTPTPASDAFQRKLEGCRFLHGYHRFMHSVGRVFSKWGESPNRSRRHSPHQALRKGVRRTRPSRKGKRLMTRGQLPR
Protocol: as §1, §2

COL23A1 = biological target: T4, COL23A1 (human, UniProt Q86Y22); assay: cell array, transfected fixed HEK293 cells
T4 construct: expressed in transfected HEK293 cells
Protocol: as §1, §2

BAIAP2L2 = biological target: T5, BAIAP2L2 (human, UniProt Q6UXY1); assay: cell array, transfected fixed HEK293 cells
T5 construct: expressed in transfected HEK293 cells
T5 sequence (looked up): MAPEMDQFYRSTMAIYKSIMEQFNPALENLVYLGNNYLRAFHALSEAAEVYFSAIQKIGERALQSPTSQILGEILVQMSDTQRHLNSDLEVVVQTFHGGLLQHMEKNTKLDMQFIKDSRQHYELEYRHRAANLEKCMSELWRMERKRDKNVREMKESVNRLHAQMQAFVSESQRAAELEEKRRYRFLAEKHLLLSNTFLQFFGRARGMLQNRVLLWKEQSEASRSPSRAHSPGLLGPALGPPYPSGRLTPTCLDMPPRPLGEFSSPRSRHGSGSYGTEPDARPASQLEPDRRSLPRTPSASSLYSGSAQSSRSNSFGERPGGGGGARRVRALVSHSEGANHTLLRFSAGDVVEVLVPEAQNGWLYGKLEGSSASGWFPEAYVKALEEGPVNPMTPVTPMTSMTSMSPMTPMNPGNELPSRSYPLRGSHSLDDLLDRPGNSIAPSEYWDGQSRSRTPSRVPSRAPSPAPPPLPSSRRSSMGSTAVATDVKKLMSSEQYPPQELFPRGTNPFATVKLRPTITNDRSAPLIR
Protocol: as §1, §2

PPT1 = biological target: T6, PPT1 (human, UniProt P50897); assay: cell array, transfected fixed HEK293 cells
T6 construct: expressed in transfected HEK293 cells
T6 sequence (looked up): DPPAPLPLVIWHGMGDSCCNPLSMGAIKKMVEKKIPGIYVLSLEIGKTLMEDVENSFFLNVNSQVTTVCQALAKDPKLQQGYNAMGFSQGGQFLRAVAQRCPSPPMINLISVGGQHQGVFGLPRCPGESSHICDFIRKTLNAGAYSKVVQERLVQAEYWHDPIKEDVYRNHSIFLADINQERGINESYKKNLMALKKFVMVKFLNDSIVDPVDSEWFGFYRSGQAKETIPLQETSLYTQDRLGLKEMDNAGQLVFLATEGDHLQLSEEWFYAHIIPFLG
Protocol: as §1, §2

EGFR = biological target: T7, EGFR (human, UniProt P00533); assay: cell array, transfected fixed HEK293 cells
T7 construct: expressed in transfected HEK293 cells
Protocol: as §1, §2

MSN = biological target: T8, MSN (human, UniProt P26038); assay: cell array, transfected fixed HEK293 cells
T8 construct: expressed in transfected HEK293 cells
Protocol: as §1, §2

TGM2 = biological target: T9, TGM2 (human, UniProt P21980); assay: cell array, transfected fixed HEK293 cells
T9 construct: expressed in transfected HEK293 cells
T9 sequence (looked up): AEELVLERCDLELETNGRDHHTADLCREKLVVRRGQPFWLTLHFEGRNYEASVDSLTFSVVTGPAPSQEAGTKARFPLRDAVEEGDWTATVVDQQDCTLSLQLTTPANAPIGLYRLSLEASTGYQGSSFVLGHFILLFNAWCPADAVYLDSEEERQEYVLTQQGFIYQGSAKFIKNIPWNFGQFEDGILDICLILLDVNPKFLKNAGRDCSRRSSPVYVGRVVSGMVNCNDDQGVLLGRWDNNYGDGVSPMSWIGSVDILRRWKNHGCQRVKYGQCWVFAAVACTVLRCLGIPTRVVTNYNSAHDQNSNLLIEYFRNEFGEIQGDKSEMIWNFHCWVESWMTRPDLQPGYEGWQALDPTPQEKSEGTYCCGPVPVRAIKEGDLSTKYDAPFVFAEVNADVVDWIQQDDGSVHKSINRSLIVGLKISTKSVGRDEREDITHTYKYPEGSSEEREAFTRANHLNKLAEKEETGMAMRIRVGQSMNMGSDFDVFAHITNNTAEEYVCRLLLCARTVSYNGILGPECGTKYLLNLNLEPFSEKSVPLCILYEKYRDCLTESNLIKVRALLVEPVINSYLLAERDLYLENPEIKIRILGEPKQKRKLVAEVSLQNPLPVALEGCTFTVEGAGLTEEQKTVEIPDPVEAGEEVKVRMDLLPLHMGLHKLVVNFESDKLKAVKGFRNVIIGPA
Protocol: as §1, §2

T8 sequence (P26038 2-577 limits assumed): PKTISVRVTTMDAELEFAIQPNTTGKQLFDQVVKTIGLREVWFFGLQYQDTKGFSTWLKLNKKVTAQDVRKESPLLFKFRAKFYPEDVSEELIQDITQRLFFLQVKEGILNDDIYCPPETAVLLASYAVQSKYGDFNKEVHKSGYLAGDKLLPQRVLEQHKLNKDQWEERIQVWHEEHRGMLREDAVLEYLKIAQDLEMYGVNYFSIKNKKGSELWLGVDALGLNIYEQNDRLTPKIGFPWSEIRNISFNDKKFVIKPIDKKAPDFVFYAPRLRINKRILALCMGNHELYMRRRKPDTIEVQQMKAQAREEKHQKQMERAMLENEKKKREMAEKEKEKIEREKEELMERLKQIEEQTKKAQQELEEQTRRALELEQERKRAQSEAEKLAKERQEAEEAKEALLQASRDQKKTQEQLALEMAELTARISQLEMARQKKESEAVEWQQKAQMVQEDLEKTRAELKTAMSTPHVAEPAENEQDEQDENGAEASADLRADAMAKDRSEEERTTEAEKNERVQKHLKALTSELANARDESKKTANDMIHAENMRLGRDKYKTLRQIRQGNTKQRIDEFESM
T4 sequence (Q86Y22 whole entry): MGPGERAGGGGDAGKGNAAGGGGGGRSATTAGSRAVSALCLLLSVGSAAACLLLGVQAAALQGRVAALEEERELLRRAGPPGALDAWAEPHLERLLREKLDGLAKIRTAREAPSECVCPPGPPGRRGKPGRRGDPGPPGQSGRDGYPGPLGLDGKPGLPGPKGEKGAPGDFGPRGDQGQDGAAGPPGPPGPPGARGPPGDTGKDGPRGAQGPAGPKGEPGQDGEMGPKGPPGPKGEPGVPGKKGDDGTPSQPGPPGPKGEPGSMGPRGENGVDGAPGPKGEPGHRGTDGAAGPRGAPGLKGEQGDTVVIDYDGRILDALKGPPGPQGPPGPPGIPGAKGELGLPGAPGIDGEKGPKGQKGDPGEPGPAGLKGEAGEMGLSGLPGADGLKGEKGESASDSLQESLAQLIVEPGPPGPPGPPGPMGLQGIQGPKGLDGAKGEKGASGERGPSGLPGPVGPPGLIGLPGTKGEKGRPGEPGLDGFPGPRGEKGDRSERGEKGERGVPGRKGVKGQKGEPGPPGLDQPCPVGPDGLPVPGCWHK

binding result (hDR6-Fc): no binding (tested: 1 µg/ml) | binding result (PSAPL1): no binding (tested: 2 µg/ml) | binding result (OSM): no binding (tested: 2 µg/ml) | binding result (COL23A1): no binding (tested: 2 µg/ml) | binding result (BAIAP2L2): no binding (tested: 2 µg/ml) | binding result (PPT1): no binding (tested: 2 µg/ml) | binding result (EGFR): no binding (tested: 2 µg/ml) | binding result (MSN): no binding (tested: 2 µg/ml) | binding result (TGM2): no binding (tested: 2 µg/ml)
B1: humanized h37M, human IgG1 (antibody, V domains shown)
VH: QVQLVQSGAEVKKPGASVKLSCKASGYTFTDYYINWVRQAPGKGLEWIARIYPGSGNTYYNEKFKGRATLTADKSTSTAYMQLSSLRSEDTAVYFCARGVYYFDYWGQGTTVTVSS
VL: DIVMTQSPSSLSASVGDRVTITCKASQNVRTNVAWYQQKPGKAPKALIYSASYRYSGVPDRFTGSGSGTDFTLTISSLQPEDFADYFCQQYNSYPRTFGGGTKVEIK
notes: human IgG1; terbium-labelled as the tracer of the HTRF assays; also called C-KIT-h37M; h37M-IgG1
